Earlier results as cited in publication PMC9965408.

Molecular target: plasmin (Homo sapiens) (UniProt P00747)
UniProt P00747, sequence (P00747 581-810): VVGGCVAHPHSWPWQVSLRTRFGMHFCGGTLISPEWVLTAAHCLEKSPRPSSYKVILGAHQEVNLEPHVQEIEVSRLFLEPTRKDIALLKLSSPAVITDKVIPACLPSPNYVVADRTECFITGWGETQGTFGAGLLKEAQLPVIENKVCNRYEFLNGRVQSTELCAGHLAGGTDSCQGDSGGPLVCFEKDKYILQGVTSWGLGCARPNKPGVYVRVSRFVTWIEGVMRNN

Substance: AaTI (from UniProt Q177W0)
- Ki: 7 µM
